In the DeepSol protein solubility set:

test: soluble on expression in E. coli; label from the status in PepcDB or PDB records

Row | Sequence | soluble on expression in E. coli
1 | MGHHHHHHGGHMSLQRGCDGCKQNQSREPATIDGFMPKAQESIMGQQKQRNRRWVLASRPHGAPVPENFRLEEDDVATPGEGQVLLRTVYLSLDPYMRGRMSDEPSYSPPVDIGGVMVGGTVSRVVESNHPDYQSGDWVLGYSGWQDYDISSGDDLVKLGDHPQNPSWSLGVLGMPGFTAYMGLLDIGQPKEGETLVVAAATGPVGATVGQIGKLKGCRVVGVAGGAEKCRHATEVLGFDVCLDHHADDFAEQLAKACPKGIDIYYENVGGKVFDAVLPLLNTSARIPVCGLVSSYNATELPPGPDRLPLLMATVLKKRIRLQGFIIAQDYGHRIHEFQREMGQWVKEDKIHYREEITDGLENAPQTFIGLLKGKNFGKVVIRVAGDDEGGS | soluble
2 | MGHHHHHHGGHMSLSNEVERVYPRLLDFVRKKYVSKNLLRVTLTGEDLIGFPEDQNGSHIKVFFPNQASGILQLPIREGDKVIWPEHKPVPRAYTVRQYRAQSNELDIDFVVHGEGTPGGGWALKAQTGSQLGLIGPGGPDPLIEPADWHIMAGDLSAVPAISAILEKMPSQAKGYVFLEVDDIEDKHDISHPEQMVIKWLVRDPNQAQPVLAMAIEQLPVPQGAESLSAFVAGENESVIACRKILRNEYRIARDKIYAIPYWKRGKNEEAYHEERHVVMDEEFEGGS | soluble
3 | MGHHHHHHHHHHSSGHIDDDDKHMLEDPMATGDERFYAEHLMPTLQGLLDPESAHRLAVRFTSLGLLPRARFQDSDMLEVRVLGHKFRNPVGIAAGFDKHGEAVDGLYKMGFGFVEIGSVTPKPQEGNPRPRVFRLPEDQAVINRYGFNSHGLSVVEHRLRARQQKQAKLTEDGLPLGVNLGKNKTSVDAAEDYAEGVRVLGPLADYLVVNVSSPNTAGLRSLQGKAELRRLLTKVLQERDGLRRVHRPAVLVKIAPDLTSQDKEDIASVVKELGIDGLIVTNTTVSRPAGLQGALRSETGGLSGKPLRDLSTQTIREMYALTQGRVPIIGVGGVSSGQDALEKIRAGASLVQLYTALTFWGPPVVGKVKRELEALLKEQGFGGVTDAIGADHRR | soluble
4 | MGHHHHHHHHHHSSGHIEGRHMILLEKTQEKKINDKEELIVKEEVETNWDYGCNPYERKIEDLIKYGVVVVDKPRGPTSHEVSTWVKKILNLDKAGHGGTLDPKVTGVLPVALERATKTIPMWHIPPKEYVCLMHLHRDASEEDILRVFKEFTGRIYQRPPLKAAVKRRLRIRKIHELELLDKDGKDVLFRVKCQSGTYIRKLCEDIGEALGTSAHMQELRRTKSGCFEEKDAVYLQDLLDAYVFWKEDGDEEELRRVIKPMEYGLRHLKKVVVKDSAVDAICHGADVYVRGIAKLSKGIGKGETVLVETLKGEAVAVGKALMNTKEILNADKGVAVDVERVYMDRGTYPRMWKRKK | soluble
5 | MGHHHHHHHSSENLYFQGHMRKIRVGLIFGGKSAEHEVSLQSARNILDALDPQRFEPVLIGIDKQGQWHVNDPDSFLLHADDPARIALHRSGRGVALLPGAQQQQLRPIQPEQALAQIDVVFPIVHGTLGEDGSLQGLLRMANLPFVGSGVLGSAVAMDKDMAKRVLRDARLAVAPFVCFDRHTAAHADVDTLIAQLGLPLFVKPANQGSSVGVSQVRTADAFAAALALALAYDHKVLVEAAVAGREIECAVLGNAVPHASVCGEVVVHDAFYSYATKYISEHGAEIVIPADIDAQTQQRIQQIAVQAYQALGCAGMARVDVFLCADGRIVINEVNTLPGFTRISVYPKLWQASGLDYRGLITRLIELALERHTDDQLLRSAVELH | soluble
6 | MGHHHHHHMPEINTNHLDKQQVQLLAEMCILIDENDNKIGAETKKNCHLNENIEKGLLHRAFSVFLFNTENKLLLQQRSDAKITFPGCFTNTCCSHPLSNPAELEESDALGVRRAAQRRLKAELGIPLEEVPPEEINYLTRIHYKAQSDGIWGEHEIDYILLVRMNVTLNPDPNEIKSYCYVSKEELKELLKKAASGEIKITPWFKIIAATFLFKWWDNLNHLNQFVDHEKIYRM | soluble
7 | MGHHHHHHQQIMKGNFSSFMQKEIFEQPESVVNTMRGRVNFDDYTVNLGGLKDHIKEIQRCRRLILIACGTSYHAGVATRQVLEELTELPVMVELASDFLDRNTPVFRDDVCFFLSQSGETADTLMGLRYCKERGALTVGITNTVGSSISRETDCGVHINAGPEIGVASTKAYTSQFVSLVMFALMMCDDRISMQERRKEIMLGLKRLPDLIKEVLSMDDEIQKLATELYHQKSVLIMGRGYHYATCLEGALKIKEITYMHSEGILAGELKHGPLALVDKLMPVIMIIMRDHTYAKCQNALQQVVARQGRPVVICDKEDTETIKNTKRTIKVPHSVDCLQGILSVIPLQLLAFHLAVLRGYDVDFPRNLAKSVTVE | soluble
8 | MGHHHHHHSHANSIDLIGYVHQPVQFDSTLDGKFWAGTVISHEPSSDSKSESDSSSNFWIPVLFEGDLAHTANSYLKKNDRVHITGQILGDVIQSGANSDQAHVQLFKSFHGSFSHQVMVRD | not soluble
9 | MGHHHHHHSHGTRQELSGNTKSRESIQEPRSDYYNHEVPDIDLSDCEFPHVIEIYDFPQEFRTEDLLRVFCSYQKKGFDIKWVDDTHALGVFSSPITARDALGIKHTMVKIRPLSQATRAAKAKARAYAEFLQPAKERPETSAALARRLVISALGVRSKQSKTEREAELKKLQEARERKRLEAKQREDIWEGRDQSTV | soluble
10 | MGHHHHHHSHIAFLGPKGSYSHLAARQYAARHFEQFIESGCAKFADIFNQVETGQADYAVVPIENTSSGAINDVYDLLQHTSLSIVGEMTLTIDHCLLVSGTTDLSTINTVYSHPQPFQQCSKFLNRYPHWKIEYTESTSAAMEKVAQAKSPHVAALGSEAGGTLYGLQVLERIEANQRQNFTRFVVLARKAI | soluble
11 | MGHHHHHHSHKHPFIVELAYAFQTGGKLYLILECLSGGELFTHLEREGIFLEDTACFYLAEITLALGHLHSQGIIYRDLKPENIMLSSQGHIKLTDFGLCKESIHEGAVTHTFCGTIEYMAPEILVRSGHNRAVDWWSLGALMYDMLTGSPPFTAENRKKTMDKIIRGKLALPPYLTPDARDLVKKFLKRNP | not soluble
12 | MGHHHHHHSHMAAGTLYTYPENWRAFKALIAAQYSGAQVRVLSAPPHFHFGQTNRTPEFLRKFPAGKVPAFEGDDGFCVFESNAIAYYVSNEELRGSTPEAAAQVVQWVSFADSDIVPPASTWVFPTLGIMHHNKQATENAKEEVRRILGLLDAYLKTRTFLVGERVTLADITVVCTLLWLYKQVLEPSFRQAFPNTNRWFLTCINQPQFRAVLGEVKLCEKMAQFDAKKFA | not soluble
13 | MGHHHHHHSHMAATKRKRRGGFAVQAKKPKRNEIDAEPPAKRHATAEEVEEEERDRIPGPVCKGKWKNKERILIFSSRGINFRTRHLMQDLRMLMPHSKADTKMDRKDKLFVINEVCEMKNCNKCIYFEAKKKQDLYMW | not soluble
14 | MGHHHHHHSHMANSAGSMANSAGSMKEGKHFVLVHGACHGGWSWYKLKPLLEAAGHKVTALDLAASGTDLRKIEELRTLYDYTLPLMELMESLSADEKVILVGHSLGGMNLGLAMEKYPQKIYAAVFLAAFMPDSVHNSSFVLEQYNERTPAENWLDTQFLPYGSPEEPLTSMFFGPKFLAHKLYQLCSPEDLALASSLVRPSSLFMEDLSKAKYFTDERFGSVKRVYIVCTEDKGIPEEFQRWQIDNIGVTEAIEIKGADHMAMLCEPQKLCASLLEIAHKYN | soluble
15 | MGHHHHHHSHMAVRRPGCFLCREEAADLSSLKSMLDQLGVPLYAVVKEHIRTEVKDFQPYFKGEIFLDEKKKFYGPQRRKMMFMGFIRLGVWYNFFRAWNGGFSGNLEGEGFILGGVFVVGSGKQGILLEHREKEFGDKVNLLSVLEAAKMIKPQTLASEKK | not soluble
16 | MGHHHHHHSHMCSWASYMTNSPTLIVMIGLPARGKTYVSKKLTRYLNWIGVPTKVFNLGVYRREAVKSYKSYDFFRHDNEEAMKIRKQCALVALEDVKAYLTEENGQIAVFDATNTTRERRDMILNFAEQNSFKVFFVESVCDDPDVIAANILEVKVSSPDYPERNRENVMEDFLKRIECYKVTYRPLDPDNYDKDLSFIKVINVGQRFLVNRVQDYIQSKIVYYLMNIHVQPRTIYLCRHGESEFN | soluble
17 | MGHHHHHHSHMDCCASRGCSVPTGPATTICSSDKSCRCGVCLPSTCPHTVWLLEPTCCDNCPPPCHIPQPCVPTCFLLNSCQPTPGLETLNLTTFTQPCCEPCLPRGC | not soluble
18 | MGHHHHHHSHMDDPLLVELQAEDYWYEAYNMRTGARGVFPAYYAIEVTKEPEHMAALAKNSDWVDQFRVKFLGSVQVPYHKGNDVLCAAMQKIATTRRLTVHFNPPSSCVLEISVRGVKIGVKADDSQEAKGNKCSHFFQLKNISFCGYHPKNNKYFGFITKHPADHRFACHVFVSEDSTKALAESVGRAFQQFYKQFVEYTCPT | soluble
19 | MGHHHHHHSHMDFSHWPHVLPLEPGGCIDFQTENSSRHCLVTYRPDKNHTTIRSVLMEMSYRLDDTGNPICSCQPVHTFFGGPTCKLLTKNAIFQSPENDGNILVCTGDEAANSALLWDAASGSLLQDLRTDQPVLDICPFEVNRNSYLATLTEKMVHIYKWE | not soluble
20 | MGHHHHHHSHMDQRQRRILGQPLSIPTSQPKQKRTSMISFFSKVSWKLRFQKREPLKNVFFILAERARDPSAKKRHMAMRNLGTMAYEAPDKVRKYKKIVLDLLVYGLYDPVNLEVIHESMKTLTVVLGKIQGKGLGSFFIDIALQTRTLLDDENDSLRYSAFVLFGQLAAFAGRKWKKFFTSQVKQTRDSLLIHLQDRNPQVAKACKTTFQACSPYLKLKEEYSFQSEEDQRNTKLYQQLSHYHPEILQFFYANKIL | not soluble
21 | MGHHHHHHSHMEKCSVGGLELTEQTPALLGNMAMATSLMDIGDSFGHPACPLVSRSRNSPVEDDDDDDDVVFIESIQPPSISAPAIADQRNFIFASSKNEKPQGNYSVIPPSSRDLASQKGNISETIVIDDEEDVETNGGAEKKSSFFIEWGLPGTKNKTNDLDFSTSSLSRSKTKTGVRPFNPGRMNVAGDLFQNGEFATHHSPEMHLQRRLMSFFQ | not soluble
22 | MGHHHHHHSHMEVVLPLDPAVPAPLCPHGPTLLFVKVTQGKEETRRFYACSACRDRKDCNFFQWEDEKLSGARLAAREAHNRRCQPPLSRTQCVERYLKFIELPLTQRKFCQTCQQLLLPDDWGQHSEHQVLGNVSITQLRRPSQLLYPLENKKTNAQYLFADRSCQFLVDLLSALGFRRVLCVGTPRLHELIKLTASGDKKSNIKSLLLDIDFR | not soluble
23 | MGHHHHHHSHMEYHTMIRELILDGSLQLIQEGLKSGFLYPLFEKQDKGSKPITLPLDACSLSELCEMAKHLPSLNEMEHQTLQLVEEDTSVTEQDLFLRVVENNSSFTKVITLMGQKYLLPPKSSFLLSDISCMQPLLNYRKTFDVIVIDPPWQNKSVKRSNRYSYLSPLQIQQIPIPKLAAPNCLLVTWVTNRQKHLRFIKEELLSLLVCGGSC | not soluble
24 | MGHHHHHHSHMGDSRRDVLHEPAIALLSSPQTQSRLQIDAFIARRCWGSQWDITGYIHQQDFPTAVFIGFSNEFNICIPHPFTEWLQCVRKYSQSWGVRKGQRHIRYGMCSERTHHLSRTYSSLLEREEKLAFYGVLTMCQIWSET | not soluble
25 | MGHHHHHHSHMIKYYNRKTKQYEIEKVAGENYLNWTYSSPIGMSFLEALIKKKAFSSIYGSFCDSKISKGKVKKFIDSFDIDILESEKKPEAFKSFNDFFTRKLTKEARPFSTNKEILISPGDGRLLVYENIDLDNLVEIKGMGYSLKELIKDEKISSKYKNGICMILRLCPTDYHRFHFVDSGVCSATSKIKGSYYSVNPIALNKVKRLFCENKREWSILKSDNFKDILYIEVGATCVGSIIQTYKENTKVNKGDEKGYFKFGGSTVVLFFEKDSVKIDEDILEQTRLGYETKVFMGESIGKK | soluble
